Earlier results, collected in PMC3726680.
pKd: −log10 of the molar value.

Target: HER2 (Homo sapiens) (UniProt P04626)

For trastuzumab, the pKd is given as 10.00.
